Source: paper PMC2844784 (Cell host & microbe, 2010)

Target: T1, recombinant Set7/9-KMT7 (UniProt Q8WTS6 1-366)
T1 sequence (looked up): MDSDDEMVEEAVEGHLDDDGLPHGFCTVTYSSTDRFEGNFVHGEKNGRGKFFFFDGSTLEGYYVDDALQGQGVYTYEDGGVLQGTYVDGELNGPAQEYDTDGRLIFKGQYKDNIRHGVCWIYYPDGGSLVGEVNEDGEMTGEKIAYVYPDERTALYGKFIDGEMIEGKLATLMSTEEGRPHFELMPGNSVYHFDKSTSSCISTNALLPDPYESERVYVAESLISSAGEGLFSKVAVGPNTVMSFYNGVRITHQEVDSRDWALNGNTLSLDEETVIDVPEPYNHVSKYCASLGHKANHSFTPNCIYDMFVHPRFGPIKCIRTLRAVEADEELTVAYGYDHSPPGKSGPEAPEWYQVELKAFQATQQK
Assay: in vitro binding reaction

B1: full-length synthetic Tat protein (aa 1-72) (natural protein)
chain: MEPVDPRLEPWKHPGSQPKTACTNCYCKKCCFHCQVCFITKALGISYGRKKRRQRRRAHQNSQTHQASLSKQ
B1: binds.
